Laboratory results as given in FireProtDB (doi:10.1021/bi000442n).
Several values for one entry are separate records, joined by “and”; a condition that tells them apart may be missing. Equal entries are not always repeated.

Conditions: Mus musculus; pH 7.5; Thermal; CD; KH2PO4-K2HPO4 10 mM; NaCl 0.0 mM; reversible: yes; whole UniProt chain shown

B1: Signal peptide peptidase wild type, Q9D8V0 (protein)
chain: MDSAVSDPHNGSAEAGTPANGTTRPPSTPEGIALAYGSLLLMALLPIFFGALRSVRCARGKSSSDMPETITSRDAARFPIIASCTLLGLYLFFKIFSQEYINLLLSMYFFVLGILALSHTISPFMNKFFPANFPNRQYQLLFTQGSGENKEEIINYEFDTKDLVCLGLSSVVGVWYLLRKHWIANNLFGLAFSLNGVELLHLNNVSTGCILLGGLFIYDIFWVFGTNVMVTVAKSFEAPIKLVFPQDLLEKGLEADNFAMLGLGDIVIPGIFIALLLRFDISLKKNTHTYFYTSFAAYIFGLGLTIFIMHIFKHAQPALLYLVPACIGFPVLVALAKGEVAEMFSYEESNPKDPAAETESKEESTEASASKRLEKKEK
  Tm: 43.7 °C and 41 °C
